Like-named read-outs stand apart in the source and are kept apart here.
Key:
Assay in all cases: BLI
CXCL5 [1] = molecular target: CXCL5
CXCL2 [2] = molecular target: CXCL2
CXCL3_HUMAN [3] = molecular target: T1, CXCL3_HUMAN (human, UniProt P19876 35-107)
CXCL1_HUMAN [4] = molecular target: T2, CXCL1_HUMAN (human, UniProt P09341 35-107)
CXCL8_HUMAN = CXCL8_HUMAN (human, UniProt P10145 28-99)
CCL23_HUMAN = molecular target: T3, CCL23_HUMAN (human, UniProt P55773 22-120)
T3 chain: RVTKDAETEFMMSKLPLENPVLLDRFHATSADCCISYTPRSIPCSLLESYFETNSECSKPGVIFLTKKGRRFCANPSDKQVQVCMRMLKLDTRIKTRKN

CCL1_HUMAN = molecular target: T4, CCL1_HUMAN (human, UniProt P22362 24-96)
T4 chain: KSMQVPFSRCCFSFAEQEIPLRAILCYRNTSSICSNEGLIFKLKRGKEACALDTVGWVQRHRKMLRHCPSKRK

CCL5_HUMAN = molecular target: T5, CCL5_HUMAN (human, UniProt P13501 24-91)
T5 chain: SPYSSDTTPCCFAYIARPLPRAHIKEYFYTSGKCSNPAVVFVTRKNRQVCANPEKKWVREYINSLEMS

CCL4_HUMAN = molecular target: T6, CCL4_HUMAN (human, UniProt P13236 24-92)
T6 chain: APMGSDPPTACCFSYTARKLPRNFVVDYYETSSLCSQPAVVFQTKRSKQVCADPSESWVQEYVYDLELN

CCL13_HUMAN [5] = molecular target: T7, CCL13_HUMAN (human, UniProt Q99616 24-98)
CCL24_HUMAN = molecular target: T8, CCL24_HUMAN (human, UniProt O00175 27-104)
T8 chain: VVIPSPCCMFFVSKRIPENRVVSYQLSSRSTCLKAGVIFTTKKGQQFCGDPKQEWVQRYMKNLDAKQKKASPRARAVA

CCL14_HUMAN [6] = molecular target: T9, CCL14_HUMAN (human, UniProt Q16627 22-93)
T9 chain: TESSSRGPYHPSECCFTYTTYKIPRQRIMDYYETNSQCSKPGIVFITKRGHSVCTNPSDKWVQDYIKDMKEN

CCL11_HUMAN [7] = molecular target: T10, CCL11_HUMAN (human, UniProt P51671 24-97)
CCL16_HUMAN = molecular target: T11, CCL16_HUMAN (human, UniProt O15467 24-120)
T11 chain: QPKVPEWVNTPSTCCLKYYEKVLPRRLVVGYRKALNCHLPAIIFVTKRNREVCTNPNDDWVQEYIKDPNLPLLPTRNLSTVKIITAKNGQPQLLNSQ

CCL4L1_HUMAN = molecular target: T12, CCL4L1_HUMAN (human, UniProt Q8NHW4 24-92)
T12 chain: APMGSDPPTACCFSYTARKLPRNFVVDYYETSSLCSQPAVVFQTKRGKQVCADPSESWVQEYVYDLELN

CCL8_HUMAN [8] = molecular target: T13, CCL8_HUMAN (human, UniProt P80075 24-99)
T13 chain: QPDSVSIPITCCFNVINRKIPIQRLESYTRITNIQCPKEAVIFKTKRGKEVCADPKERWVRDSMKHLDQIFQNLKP

CCL7_HUMAN = CCL7_HUMAN (human, UniProt P80098 24-99)
CCL2_HUMAN = CCL2_HUMAN (human, UniProt P13500 24-99)
CCL21_HUMAN = molecular target: T14, CCL21_HUMAN (human, UniProt O00585 24-134)
T14 chain: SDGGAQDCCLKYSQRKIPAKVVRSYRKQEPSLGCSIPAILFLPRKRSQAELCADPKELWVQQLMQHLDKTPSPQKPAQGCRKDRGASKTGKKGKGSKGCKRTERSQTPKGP

CCL18_HUMAN = molecular target: T15, CCL18_HUMAN (human, UniProt P55774 21-89)
T15 chain: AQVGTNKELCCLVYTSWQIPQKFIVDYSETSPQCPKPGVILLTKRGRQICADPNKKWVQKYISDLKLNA

CCL17_HUMAN = molecular target: T16, CCL17_HUMAN (human, UniProt Q92583 24-94)
T16 chain: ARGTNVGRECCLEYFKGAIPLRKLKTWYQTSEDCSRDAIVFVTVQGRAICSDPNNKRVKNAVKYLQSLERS

CCL27_HUMAN = molecular target: T17, CCL27_HUMAN (human, UniProt Q9Y4X3 25-112)
T17 chain: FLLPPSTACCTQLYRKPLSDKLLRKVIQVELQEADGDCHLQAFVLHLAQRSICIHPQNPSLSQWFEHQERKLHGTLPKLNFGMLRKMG

CCL15_HUMAN = molecular target: T18, CCL15_HUMAN (human, UniProt Q16663 22-113)
T18 chain: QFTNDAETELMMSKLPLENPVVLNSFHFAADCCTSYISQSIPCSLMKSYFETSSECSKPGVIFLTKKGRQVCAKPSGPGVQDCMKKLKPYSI

CCL3L1_HUMAN = molecular target: T19, CCL3L1_HUMAN (human, UniProt P16619 24-93)
T19 chain: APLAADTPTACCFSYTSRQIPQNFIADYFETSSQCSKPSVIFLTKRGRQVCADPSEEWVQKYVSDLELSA

CCL22_HUMAN = molecular target: T20, CCL22_HUMAN (human, UniProt O00626 25-93)
T20 chain: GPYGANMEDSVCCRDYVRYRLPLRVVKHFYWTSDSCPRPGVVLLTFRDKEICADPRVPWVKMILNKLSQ

CCL3_HUMAN = molecular target: T21, CCL3_HUMAN (human, UniProt P10147 24-92)
T21 chain: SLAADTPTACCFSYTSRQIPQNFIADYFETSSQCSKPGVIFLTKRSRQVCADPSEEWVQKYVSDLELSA

CXCL7_HUMAN = molecular target: T22, CXCL7_HUMAN (human, UniProt P02775 59-128)
T22 chain: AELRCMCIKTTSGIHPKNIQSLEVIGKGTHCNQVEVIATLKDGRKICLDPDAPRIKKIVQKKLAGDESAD

CXCL3_HUMAN [9] = molecular target: T1, CXCL3_HUMAN; remark: listed apart in the source
CXCL1_HUMAN [10] = molecular target: T2, CXCL1_HUMAN; remark: listed apart in the source
CXCL11_HUMAN = molecular target: T23, CXCL11_HUMAN (human, UniProt O14625 22-94)
T23 chain: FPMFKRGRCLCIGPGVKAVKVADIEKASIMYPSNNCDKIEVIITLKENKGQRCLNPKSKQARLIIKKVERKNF

CXCL10_HUMAN = CXCL10_HUMAN (human, UniProt P02778 22-98)
CXCL4 = molecular target: CXCL4
CXCL2 [11] = molecular target: CXCL2; remark: listed apart in the source
CXCL5 [12] = molecular target: CXCL5; remark: listed apart in the source
CXCL6 = molecular target: CXCL6
CCL13_HUMAN [13] = molecular target: T7, CCL13_HUMAN; remark: listed apart in the source
CCL14_HUMAN [14] = molecular target: T9, CCL14_HUMAN
CCL11_HUMAN [15] = molecular target: T10, CCL11_HUMAN; remark: listed apart in the source
CCL8_HUMAN [16] = molecular target: T13, CCL8_HUMAN

T10 sequence (P51671 24-97): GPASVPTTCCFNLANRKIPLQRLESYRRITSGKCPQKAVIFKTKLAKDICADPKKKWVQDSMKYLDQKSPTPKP
T7 sequence (Q99616 24-98): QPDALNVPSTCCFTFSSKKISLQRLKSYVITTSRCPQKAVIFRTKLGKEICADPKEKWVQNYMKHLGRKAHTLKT
T2 sequence (P09341 35-107): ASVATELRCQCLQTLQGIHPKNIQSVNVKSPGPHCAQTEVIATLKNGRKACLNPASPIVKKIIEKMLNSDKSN
T1 sequence (P19876 35-107): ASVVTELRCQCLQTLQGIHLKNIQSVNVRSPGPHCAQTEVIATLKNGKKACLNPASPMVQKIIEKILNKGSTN
Sequence of CXCL8_HUMAN (P10145 28-99): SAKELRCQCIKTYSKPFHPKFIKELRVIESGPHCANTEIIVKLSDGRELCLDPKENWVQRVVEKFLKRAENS
Sequence of CCL2_HUMAN (P13500 24-99): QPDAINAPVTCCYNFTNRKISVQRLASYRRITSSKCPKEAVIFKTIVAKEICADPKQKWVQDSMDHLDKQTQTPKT
Sequence of CCL7_HUMAN (P80098 24-99): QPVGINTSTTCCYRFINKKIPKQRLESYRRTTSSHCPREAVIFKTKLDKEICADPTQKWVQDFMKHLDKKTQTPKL
Sequence of CXCL10_HUMAN (P02778 22-98): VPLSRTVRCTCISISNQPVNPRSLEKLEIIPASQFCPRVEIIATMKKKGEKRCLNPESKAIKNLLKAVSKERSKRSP

B1: P1156:G4S:P991 (designed binder)
chain: ADDDNELFTVQYCGMNCTKDEGGTWTGCTGKKEGCKCYHESGKNYGLCLSTEYTDFSQYGNPSDSEIEAAKPKRSDTLSHGGGGSENGEGTTQPDYDNSTDYYNYEDFKCTCPAPHLNNTNGTVMKPIGCYYTCNVTRCTAPDTYPCYNLTEHQAKNLTTSPTTLCAVGNCDHGICVPNGTKELCFKAPNLEE
CXCL5 [1]
  Kd: 22.7 nM
CXCL2 [2]
  Kd: 25.2 nM
CXCL3_HUMAN [3]
  Kd: 61.4 nM
CXCL1_HUMAN [4]
  Kd: 2.72 nM
CXCL8_HUMAN
  Kd: 1.5 nM
CCL23_HUMAN
  Kd: 7 nM
CCL1_HUMAN
  Kd: 16.6 nM
CCL5_HUMAN
  Kd: 0.754 nM
CCL4_HUMAN
  Kd: 3.55 nM
CCL13_HUMAN [5]
  Kd: 0.207 nM
CCL24_HUMAN
  Kd: 3.58 nM
CCL14_HUMAN [6]
  Kd: 0.664 nM
CCL11_HUMAN [7]
  Kd: 1.54 nM
CCL16_HUMAN
  Kd: 0.503 nM
CCL4L1_HUMAN
  Kd: 1.28 nM
CCL8_HUMAN [8]
  Kd: 7.45 nM
CCL7_HUMAN
  Kd: 0.435 nM
CCL2_HUMAN
  Kd: 32.1 nM
CCL21_HUMAN
  Kd: 19.9 nM
CCL18_HUMAN
  Kd: 0.201 nM
CCL17_HUMAN
  Kd: 7.44 nM
CCL27_HUMAN
  Kd: 36.2 nM
CCL15_HUMAN
  Kd: 166 nM
CCL3L1_HUMAN
  Kd: 3.09 nM
CCL22_HUMAN
  Kd: 2.18 nM
CCL3_HUMAN
  Kd: 1.89 nM

B2: P1126_AMBCA (other)
chain: KPQILQRTDKSTDSEWDPQTCPETCIPSKNITCSDGCVCVKLGEEEEGTCFNMTGVDWLGSPSDD
CXCL7_HUMAN
  Kd: 6.05 nM
CXCL3_HUMAN [9]
  Kd: 13.3 nM
CXCL1_HUMAN [10]
  Kd: 10.5 nM
CXCL11_HUMAN
  Kd: 394 nM
CXCL10_HUMAN
  Kd: 7.9 nM
CXCL4
  Kd: 393 nM
CXCL2 [11]
  Kd: 5.11 nM
CXCL5 [12]
  Kd: 12.1 nM
CXCL6
  Kd: 9.12 nM

B3: P1142_AMBCA (other)
chain: KPQILQRTDHSTDSDWDPQMCPETCNPSKNISCSSECLCVTLGGGDETGTCFNMSGVDWLGHAQASDGHNDG
CXCL7_HUMAN
  Kd: 1.83 nM
CXCL3_HUMAN [9]
  Kd: 5.65 nM
CXCL1_HUMAN [10]
  Kd: 4.61 nM
CXCL11_HUMAN
  Kd: 322 nM
CXCL10_HUMAN
  Kd: 7.46 nM
CXCL4
  Kd: 381 nM
CXCL2 [11]
  Kd: 2.14 nM
CXCL5 [12]
  Kd: 9.81 nM
CXCL6
  Kd: 6.27 nM

B4: P1243_AMBAM (other)
chain: RNHTEDNSTEYYDYEEARCACPARHLNNTNGTVLKLLGCHYFCNGTLCTAPDGYPCYNLTAQQVRTLTTYPNTSCAVGVCMKGTCVKNGTMEQCFKTP
CCL13_HUMAN [13]
  Kd: 1.64 nM
CCL14_HUMAN [14]
  Kd: 6.43 nM
CCL11_HUMAN [15]
  Kd: 36.8 nM
CCL8_HUMAN [16]
  Kd: 193 nM

B5: P991:G4S:P1156 (designed binder)
chain: ENGEGTTQPDYDNSTDYYNYEDFKCTCPAPHLNNTNGTVMKPIGCYYTCNVTRCTAPDTYPCYNLTEHQAKNLTTSPTTLCAVGNCDHGICVPNGTKELCFKAPNLEEGGGGSADDDNELFTVQYCGMNCTKDEGGTWTGCTGKKEGCKCYHESGKNYGLCLSTEYTDFSQYGNPSDSEIEAAKPKRSDTLSH
CXCL5 [1]
  Kd: 52.7 nM
CXCL2 [2]
  Kd: 48.9 nM
CXCL3_HUMAN [3]
  Kd: 89.9 nM
CXCL1_HUMAN [4]
  Kd: 5.08 nM
CXCL8_HUMAN
  Kd: 3.56 nM
CCL23_HUMAN
  Kd: 5.13 nM
CCL1_HUMAN
  Kd: 7.66 nM
CCL5_HUMAN
  Kd: 0.947 nM
CCL4_HUMAN
  Kd: 3.54 nM
CCL13_HUMAN [5]
  Kd: 0.176 nM
CCL24_HUMAN
  Kd: 3.18 nM
CCL14_HUMAN [6]
  Kd: 0.835 nM
CCL11_HUMAN [7]
  Kd: 1.39 nM
CCL16_HUMAN
  Kd: 0.636 nM
CCL4L1_HUMAN
  Kd: 1.24 nM
CCL8_HUMAN [8]
  Kd: 7.89 nM
CCL7_HUMAN
  Kd: 0.287 nM
CCL2_HUMAN
  Kd: 24.8 nM
CCL21_HUMAN
  Kd: 18.2 nM
CCL18_HUMAN
  Kd: 0.143 nM
CCL17_HUMAN
  Kd: 5.8 nM
CCL27_HUMAN
  Kd: 42.6 nM
CCL15_HUMAN
  Kd: 127 nM
CCL3L1_HUMAN
  Kd: 2.91 nM
CCL22_HUMAN
  Kd: 2.36 nM
CCL3_HUMAN
  Kd: 2.22 nM

From US20200247855A1 (published 2020)
